Test results as given in patent US20180244795A1.

Experiments:
[1] = target: hCD37-LEL (Large Extracellular Loop; amino acids 107 to 242 of human CD37 with a 6xHis-tag) (human); test: ELISA, native hCD37-LEL coated on the plate, antibody at 5 µg/mL
[2] = target: hCD37-LEL (Large Extracellular Loop; amino acids 107 to 242 of human CD37 with a 6xHis-tag) (human); test: as above; remark: listed apart in the source
[3] = target: hCD37-LEL (Large Extracellular Loop; amino acids 107 to 242 of human CD37 with a 6xHis-tag) (human); test: ELISA, native hCD37-LEL coated on the plate, antibody at 10 µg/mL
[4] = target: hCD37-LEL (Large Extracellular Loop; amino acids 107 to 242 of human CD37 with a 6xHis-tag) (human); test: as above; remark: listed apart in the source
[5] = target: hCD37-LEL (Large Extracellular Loop; amino acids 107 to 242 of human CD37 with a 6xHis-tag) (human); test: ELISA, native hCD37-LEL coated on the plate, antibody at 2.5 µg/mL
[6] = target: hCD37-LEL (Large Extracellular Loop; amino acids 107 to 242 of human CD37 with a 6xHis-tag) (human); test: as above; remark: listed apart in the source
[7] = target: hCD37-LEL (Large Extracellular Loop; amino acids 107 to 242 of human CD37 with a 6xHis-tag) (human); test: ELISA, denatured hCD37-LEL coated on the plate, antibody at 5 µg/mL
[8] = target: hCD37-ECD-Fc (amino acids 107 to 235 of human CD37 fused to murine IgG2a Fc-domain) (human); test: ELISA, native hCD37-ECD-Fc coated on the plate, antibody at 5 µg/mL
hCD37-ECD-Fc (amino acids 107 to 235 of human CD37 fused to murine IgG2a Fc-domain) (human), sequence (chain, as listed by the source limits assumed): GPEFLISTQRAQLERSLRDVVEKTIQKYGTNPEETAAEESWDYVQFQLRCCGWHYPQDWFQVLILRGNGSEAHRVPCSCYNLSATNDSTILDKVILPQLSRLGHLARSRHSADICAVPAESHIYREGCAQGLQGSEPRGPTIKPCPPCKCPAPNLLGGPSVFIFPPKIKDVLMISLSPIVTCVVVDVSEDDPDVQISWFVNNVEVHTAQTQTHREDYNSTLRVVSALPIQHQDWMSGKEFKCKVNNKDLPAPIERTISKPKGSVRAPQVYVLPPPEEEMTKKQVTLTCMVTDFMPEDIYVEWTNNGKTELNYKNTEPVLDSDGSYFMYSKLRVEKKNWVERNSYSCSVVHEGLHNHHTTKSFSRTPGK

[9] = target: hCD37-LEL (Large Extracellular Loop; amino acids 107 to 242 of human CD37 with a 6xHis-tag) (human); test: ELISA, denatured hCD37-LEL coated on the plate, antibody at 10 µg/mL
[10] = target: hCD37-ECD-Fc (amino acids 107 to 235 of human CD37 fused to murine IgG2a Fc-domain) (human); test: ELISA, native hCD37-ECD-Fc coated on the plate, antibody at 10 µg/mL
[11] = target: hCD37-Fc-LAGA (amino acids 107 to 235 of human CD37 fused to human IgG1 Fc-domain) (human); test: ELISA, native hCD37-Fc-LAGA coated on the plate, antibody at 5 µg/mL
hCD37-Fc-LAGA (amino acids 107 to 235 of human CD37 fused to human IgG1 Fc-domain) (human), sequence (chain, as listed by the source limits assumed): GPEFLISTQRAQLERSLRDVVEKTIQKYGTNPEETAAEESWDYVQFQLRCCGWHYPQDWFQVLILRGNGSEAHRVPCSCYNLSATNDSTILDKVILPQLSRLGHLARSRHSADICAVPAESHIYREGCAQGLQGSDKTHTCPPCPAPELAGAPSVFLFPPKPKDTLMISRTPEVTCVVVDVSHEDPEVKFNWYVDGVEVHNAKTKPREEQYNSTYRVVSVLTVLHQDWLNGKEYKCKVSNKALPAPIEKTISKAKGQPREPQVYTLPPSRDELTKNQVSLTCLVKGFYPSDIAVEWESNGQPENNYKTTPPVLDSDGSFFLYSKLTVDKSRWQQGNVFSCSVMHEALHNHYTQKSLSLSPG

[12] = target: hCD37-Fc-LAGA (amino acids 107 to 235 of human CD37 fused to human IgG1 Fc-domain) (human); test: as above; remark: listed apart in the source
[13] = target: hCD37-LEL (Large Extracellular Loop; amino acids 107 to 242 of human CD37 with a 6xHis-tag) (human); test: ELISA, denatured hCD37-LEL coated on the plate, antibody at 2.5 µg/mL
[14] = target: hCD37-ECD-Fc (amino acids 107 to 235 of human CD37 fused to murine IgG2a Fc-domain) (human); test: ELISA, native hCD37-ECD-Fc coated on the plate, antibody at 2.5 µg/mL
[15] = target: hCD37-Fc-LAGA (amino acids 107 to 235 of human CD37 fused to human IgG1 Fc-domain) (human); test: ELISA, native hCD37-Fc-LAGA coated on the plate, antibody at 10 µg/mL
[16] = target: hCD37-Fc-LAGA (amino acids 107 to 235 of human CD37 fused to human IgG1 Fc-domain) (human); test: as above; remark: listed apart in the source
[17] = target: hCD37-ECD-Fc (amino acids 107 to 235 of human CD37 fused to murine IgG2a Fc-domain) (human); test: ELISA, denatured hCD37-ECD-Fc coated on the plate, antibody at 5 µg/mL
[18] = target: hCD37-Fc-LAGA (amino acids 107 to 235 of human CD37 fused to human IgG1 Fc-domain) (human); test: ELISA, native hCD37-Fc-LAGA coated on the plate, antibody at 2.5 µg/mL
[19] = target: hCD37-Fc-LAGA (amino acids 107 to 235 of human CD37 fused to human IgG1 Fc-domain) (human); test: as above; remark: listed apart in the source
[20] = target: hCD37-ECD-Fc (amino acids 107 to 235 of human CD37 fused to murine IgG2a Fc-domain) (human); test: ELISA, denatured hCD37-ECD-Fc coated on the plate, antibody at 10 µg/mL
[21] = target: hCD37-Fc-LAGA (amino acids 107 to 235 of human CD37 fused to human IgG1 Fc-domain) (human); test: ELISA, denatured hCD37-Fc-LAGA coated on the plate, antibody at 5 µg/mL
[22] = target: hCD37-ECD-Fc (amino acids 107 to 235 of human CD37 fused to murine IgG2a Fc-domain) (human); test: ELISA, denatured hCD37-ECD-Fc coated on the plate, antibody at 2.5 µg/mL
[23] = target: hCD37-Fc-LAGA (amino acids 107 to 235 of human CD37 fused to human IgG1 Fc-domain) (human); test: ELISA, denatured hCD37-Fc-LAGA coated on the plate, antibody at 10 µg/mL
[24] = target: hCD37-Fc-LAGA (amino acids 107 to 235 of human CD37 fused to human IgG1 Fc-domain) (human); test: ELISA, denatured hCD37-Fc-LAGA coated on the plate, antibody at 2.5 µg/mL
[25] = target: hCD37-LEL (Large Extracellular Loop; amino acids 107 to 242 of human CD37 with a 6xHis-tag) (human); test: ELISA, denatured hCD37-LEL coated on the plate, purified antibody titrated
[26] = target: hCD37-LEL (Large Extracellular Loop; amino acids 107 to 242 of human CD37 with a 6xHis-tag) (human); test: ELISA, denatured-reduced hCD37-LEL coated on the plate, antibody at 5 µg/mL
[27] = target: hCD37-LEL (Large Extracellular Loop; amino acids 107 to 242 of human CD37 with a 6xHis-tag) (human); test: ELISA, denatured-reduced hCD37-LEL coated on the plate, antibody at 10 µg/mL
[28] = target: hCD37-LEL (Large Extracellular Loop; amino acids 107 to 242 of human CD37 with a 6xHis-tag) (human); test: ELISA, denatured-reduced hCD37-LEL coated on the plate, antibody at 2.5 µg/mL
[29] = target: hCD37-Fc-LAGA (amino acids 107 to 235 of human CD37 fused to human IgG1 Fc-domain) (human); test: ELISA, denatured-reduced hCD37-Fc-LAGA coated on the plate, antibody at 5 µg/mL
[30] = target: hCD37-Fc-LAGA (amino acids 107 to 235 of human CD37 fused to human IgG1 Fc-domain) (human); test: ELISA, denatured-reduced hCD37-Fc-LAGA coated on the plate, antibody at 10 µg/mL
[31] = target: hCD37-Fc-LAGA (amino acids 107 to 235 of human CD37 fused to human IgG1 Fc-domain) (human); test: ELISA, denatured-reduced hCD37-Fc-LAGA coated on the plate, antibody at 2.5 µg/mL
[32] = target: hCD37-Fc-LAGA (amino acids 107 to 235 of human CD37 fused to human IgG1 Fc-domain) (human); test: ELISA, native hCD37-Fc-LAGA coated on the plate, purified antibody titrated (left panel)

hCD37-LEL (Large Extracellular Loop; amino acids 107 to 242 of human CD37 with a 6xHis-tag) (human), sequence (chain, as listed by the source limits assumed): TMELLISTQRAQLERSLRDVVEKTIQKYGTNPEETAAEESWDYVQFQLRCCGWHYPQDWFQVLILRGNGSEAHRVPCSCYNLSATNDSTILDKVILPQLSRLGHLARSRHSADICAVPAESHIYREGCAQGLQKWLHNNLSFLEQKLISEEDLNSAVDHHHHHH

“NCL-CD37 mouse monoclonal anti-CD37 antibody (clone CT1, Leica Biosystems)” was tested. Which ELISA absorbance at 450 nm [1] did it give?
The ELISA absorbance at 450 nm was 3.

And the ELISA absorbance at 450 nm [2]?
The ELISA absorbance at 450 nm was 2.4.

What about the ELISA absorbance at 450 nm [3] of the same substance?
The ELISA absorbance at 450 nm was 3.

And the ELISA absorbance at 450 nm [4]?
Its ELISA absorbance at 450 nm is 2.7.

What about the ELISA absorbance at 450 nm [5] of the same substance?
The ELISA absorbance at 450 nm was 3.

What about the ELISA absorbance at 450 nm [6] of the same substance?
The ELISA absorbance at 450 nm was 2.

And the ELISA absorbance at 450 nm [7]?
The ELISA absorbance at 450 nm was 2.

And the ELISA absorbance at 450 nm [8]?
Its ELISA absorbance at 450 nm is 2.4.

What about the ELISA absorbance at 450 nm [9] of the same substance?
The ELISA absorbance at 450 nm was 2.8.

What about the ELISA absorbance at 450 nm [10] of the same substance?
The ELISA absorbance at 450 nm was 2.7.

And the ELISA absorbance at 450 nm [11]?
Its ELISA absorbance at 450 nm is 2.6.

And the ELISA absorbance at 450 nm [12]?
The ELISA absorbance at 450 nm was 2.5.

And the ELISA absorbance at 450 nm [13]?
Its ELISA absorbance at 450 nm is 1.8.

And the ELISA absorbance at 450 nm [14]?
The ELISA absorbance at 450 nm was 2.2.

And the ELISA absorbance at 450 nm [15]?
Its ELISA absorbance at 450 nm is 2.8.

And the ELISA absorbance at 450 nm [16]?
Its ELISA absorbance at 450 nm is 2.9.

What about the ELISA absorbance at 450 nm [17] of the same substance?
Its ELISA absorbance at 450 nm is 3.1.

What about the ELISA absorbance at 450 nm [18] of the same substance?
The ELISA absorbance at 450 nm was 2.4.

What about the ELISA absorbance at 450 nm [19] of the same substance?
Its ELISA absorbance at 450 nm is 2.1.

What about the ELISA absorbance at 450 nm [20] of the same substance?
Its ELISA absorbance at 450 nm is 3.1.

And the ELISA absorbance at 450 nm [21]?
Its ELISA absorbance at 450 nm is 3.1.

What about the ELISA absorbance at 450 nm [22] of the same substance?
Its ELISA absorbance at 450 nm is 3.1.

And the ELISA absorbance at 450 nm [23]?
Its ELISA absorbance at 450 nm is 3.2.

What about the ELISA absorbance at 450 nm [24] of the same substance?
Its ELISA absorbance at 450 nm is 3.1.

And the EC50 (read off the curve) [25]?
Its EC50 (read off the curve) is 0.1 nM.

And the ELISA absorbance at 450 nm [26]?
Its ELISA absorbance at 450 nm is 3.2.

And the ELISA absorbance at 450 nm [27]?
Its ELISA absorbance at 450 nm is 3.3.

What about the ELISA absorbance at 450 nm [28] of the same substance?
The ELISA absorbance at 450 nm was 3.2.

And the ELISA absorbance at 450 nm [29]?
Its ELISA absorbance at 450 nm is 3.2.

What about the ELISA absorbance at 450 nm [30] of the same substance?
Its ELISA absorbance at 450 nm is 3.3.

What about the ELISA absorbance at 450 nm [31] of the same substance?
Its ELISA absorbance at 450 nm is 3.2.

And the EC50 (read off the curve) [32]?
The EC50 (read off the curve) was 3 nM.
